Target: T1, gp120Bal-CD4
T1 construct: also called 120Bal-CD4 complex
Test: ELISA, OD 450 nm

B1: m36.4 (VHH)
VHH: QVQLVQSGGGLVQPGGSLRLSCAASAFDFSDYEMSWVREAPGKGLEWIGEINDSGNTIYNPSLKSRVTISRDNSKNTLYLQMNTLRAEDTAIYYCAIYGGNSGGEYWGQGTLVTVSS
notes: eAd, mutant of m36; also called m36.4 eAd
EC50 (read off the curve): ~1 nM

B2: m36.5 (VHH)
VHH: QVQLVQSGGGLVQPGGSLRLSCAASAFDFSDYEMSWVREAPGKGLEWIGEINDSGNTIYNPSLKSRVTISRDNSKNTLYLQMNTLSAEDTAIYYCAIYGGNSGGEYWGQGTLVTVSS
notes: eAd, mutant of m36 selected from a phage library
EC50 (read off the curve): ~1 nM

B3: m36.2 (VHH)
VHH: QVQLVQSGGGLIQPGGSLRLSCAASAFDFSDYEMSWVRQDPGKGLEWIGEINDRGNTIYNPSLKSRVTISRDNSKNTLYLQMNTLRAEDTAIYYCAIYGGNSGGEYWGQGTLVTVSS
notes: as for B2
EC50 (read off the curve): ~2 nM

B4: m36.1 (VHH)
VHH: QVQLVQSGGGLVQPGGSLRLSCAASTFDFSDYEMSWVREAPGKGLEWIGEINDSGNTIYNPSLKNRVTISRDNSKNTLYLQMNTLRAEDTAIYYCAIYGGNSGGEYWGQGTLVTVSS
notes: as for B2
EC50 (read off the curve): ~1 nM

— patent publication US20130108636A1 (US Dept. of Health and Human Services, published 2013)
